Measurements from the Immune Epitope Database (IEDB).

Legend:
HLA-A*01:01 = test: IEDB peptide-MHC binding, purified MHC/competitive/fluorescence; ≥ and ≤ were set here for values at or beyond the usual limits of such assays; settings: source organism: Homo sapiens
HLA-A*02:01 [1] = test: as above; settings: source organism: Homo sapiens
HLA-A*03:01 [2] = test: as above; settings: source organism: Homo sapiens
HLA-A*11:01 = test: as above; settings: source organism: Homo sapiens
HLA-A*24:02 = test: as above; settings: source organism: Homo sapiens
HLA-A*25:01 = test: as above; settings: source organism: Homo sapiens
HLA-A*29:02 [3] = test: as above; settings: source organism: Homo sapiens
HLA-A*31:01 = test: as above; settings: source organism: Homo sapiens
HLA-A*68:02 = test: as above; settings: source organism: Homo sapiens
HLA-B*07:02 = test: as above; settings: source organism: Homo sapiens
HLA-B*08:01 = test: as above; settings: source organism: Homo sapiens
HLA-B*14:02 = test: as above; settings: source organism: Homo sapiens
HLA-B*18:01 [4] = test: as above; settings: source organism: Homo sapiens
HLA-B*35:01 = test: as above; settings: source organism: Homo sapiens
HLA-B*37:01 = test: as above; settings: source organism: Homo sapiens
HLA-B*40:02 = test: as above; settings: source organism: Homo sapiens
HLA-B*44:03 = test: as above; settings: source organism: Homo sapiens
HLA-B*51:01 [5] = test: as above; settings: source organism: Homo sapiens
HLA-B*53:01 = test: as above; settings: source organism: Homo sapiens
HLA-B*58:01 = test: as above; settings: source organism: Homo sapiens
HLA-A*02:01 [6] = test: IEDB peptide-MHC binding, purified MHC/direct/fluorescence; filed as Kd, often an IC50 or EC50 that approximates it; ≥ and ≤ were set here for values at or beyond the usual limits of such assays; settings: source organism: Escherichia coli O157:H7 str. EC869
HLA-A*02:03 = test: as above; settings: source organism: Escherichia coli O157:H7 str. EC869
HLA-A*02:06 = test: as above; settings: source organism: Escherichia coli O157:H7 str. EC869
HLA-A*02:11 = test: as above; settings: source organism: Escherichia coli O157:H7 str. EC869
HLA-A*02:12 = test: as above; settings: source organism: Escherichia coli O157:H7 str. EC869
HLA-A*02:16 = test: as above; settings: source organism: Escherichia coli O157:H7 str. EC869
HLA-A*02:19 = test: as above; settings: source organism: Escherichia coli O157:H7 str. EC869
HLA-A*03:01 [7] = test: as above; settings: source organism: Escherichia coli O157:H7 str. EC869
HLA-A*24:03 = test: as above; settings: source organism: Escherichia coli O157:H7 str. EC869
HLA-A*26:01 = test: as above; settings: source organism: Escherichia coli O157:H7 str. EC869
HLA-A*29:02 [8] = test: as above; settings: source organism: Escherichia coli O157:H7 str. EC869
HLA-B*15:17 = test: as above; settings: source organism: Escherichia coli O157:H7 str. EC869
HLA-B*18:01 [9] = test: as above; settings: source organism: Escherichia coli O157:H7 str. EC869
HLA-B*27:03 = test: as above; settings: source organism: Escherichia coli O157:H7 str. EC869
HLA-B*39:01 = test: as above; settings: source organism: Escherichia coli O157:H7 str. EC869
HLA-B*46:01 = test: as above; settings: source organism: Escherichia coli O157:H7 str. EC869
HLA-B*51:01 [10] = test: as above; settings: source organism: Escherichia coli O157:H7 str. EC869
HLA-B*57:01 = test: as above; settings: source organism: Escherichia coli O157:H7 str. EC869

IC50 (HLA-A*01:01)	IC50 (HLA-A*02:01 [1])	IC50 (HLA-A*03:01 [2])	IC50 (HLA-A*11:01)	IC50 (HLA-A*24:02)	IC50 (HLA-A*25:01)	IC50 (HLA-A*29:02 [3])	IC50 (HLA-A*31:01)	IC50 (HLA-A*68:02)	IC50 (HLA-B*07:02)	IC50 (HLA-B*08:01)	IC50 (HLA-B*14:02)	IC50 (HLA-B*18:01 [4])	IC50 (HLA-B*35:01)	IC50 (HLA-B*37:01)	IC50 (HLA-B*40:02)	IC50 (HLA-B*44:03)	IC50 (HLA-B*51:01 [5])	IC50 (HLA-B*53:01)	IC50 (HLA-B*58:01)	Sequence	further results
≥ 20 µM	0.0193 µM	≥ 20 µM	≥ 20 µM	≥ 20 µM	≥ 20 µM	≥ 20 µM	≥ 20 µM	0.0243 µM	≥ 20 µM	≥ 20 µM	≥ 20 µM	≥ 20 µM	≥ 20 µM	0.907 µM	0.745 µM	≥ 20 µM	≥ 20 µM	≥ 20 µM	≥ 20 µM	KVADVDLAVPV	–
–	–	–	–	–	–	–	–	–	–	–	–	–	–	–	–	–	–	–	–	SQFNHWFGE	Kd (HLA-A*02:01 [6]): ≥ 20 µM; Kd (HLA-A*02:03): ≥ 20 µM; Kd (HLA-A*02:06): 0.086 µM; Kd (HLA-A*02:11): ≥ 20 µM; Kd (HLA-A*02:12): ≥ 20 µM; Kd (HLA-A*02:16): ≥ 20 µM; Kd (HLA-A*02:19): ≥ 20 µM; Kd (HLA-A*03:01 [7]): ≥ 20 µM; Kd (HLA-A*24:03): ≥ 20 µM; Kd (HLA-A*26:01): ≥ 20 µM; Kd (HLA-A*29:02 [8]): ≥ 20 µM; Kd (HLA-B*15:17): ≥ 20 µM; Kd (HLA-B*18:01 [9]): ≥ 20 µM; Kd (HLA-B*27:03): ≥ 20 µM; Kd (HLA-B*39:01): ≥ 20 µM; Kd (HLA-B*46:01): ≥ 20 µM; Kd (HLA-B*51:01 [10]): ≥ 20 µM; Kd (HLA-B*57:01): ≥ 20 µM
≥ 20 µM	≥ 20 µM	1.02 µM	0.0665 µM	≥ 20 µM	≥ 20 µM	1.46 µM	1.05 µM	≥ 20 µM	≥ 20 µM	≥ 20 µM	≥ 20 µM	≥ 20 µM	≥ 20 µM	≥ 20 µM	4.59 µM	≥ 20 µM	≥ 20 µM	≥ 20 µM	≥ 20 µM	GSSDFQVHFLK	–
